Source: patent US20230087600A1

T1: mouse IL-10 receptor (IL-10R) on T cells and B cells of C57BL/6 mouse splenocytes (mouse) (UniProt Q61727)
T1 sequence (looked up) 1: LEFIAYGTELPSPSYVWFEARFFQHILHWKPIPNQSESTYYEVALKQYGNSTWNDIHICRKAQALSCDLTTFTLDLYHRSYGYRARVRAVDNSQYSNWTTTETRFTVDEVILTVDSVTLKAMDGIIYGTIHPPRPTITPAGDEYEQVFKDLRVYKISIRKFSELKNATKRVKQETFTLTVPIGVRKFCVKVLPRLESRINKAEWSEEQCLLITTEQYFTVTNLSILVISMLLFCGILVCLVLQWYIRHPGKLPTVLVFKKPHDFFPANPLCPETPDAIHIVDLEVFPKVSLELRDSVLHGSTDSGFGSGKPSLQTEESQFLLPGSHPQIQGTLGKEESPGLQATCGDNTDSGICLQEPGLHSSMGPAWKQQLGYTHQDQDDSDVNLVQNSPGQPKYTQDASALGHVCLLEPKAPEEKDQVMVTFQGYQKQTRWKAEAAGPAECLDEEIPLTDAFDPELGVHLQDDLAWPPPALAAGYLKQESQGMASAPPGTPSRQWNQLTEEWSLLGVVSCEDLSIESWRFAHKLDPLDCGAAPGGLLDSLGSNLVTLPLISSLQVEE
T1 sequence (looked up) 2: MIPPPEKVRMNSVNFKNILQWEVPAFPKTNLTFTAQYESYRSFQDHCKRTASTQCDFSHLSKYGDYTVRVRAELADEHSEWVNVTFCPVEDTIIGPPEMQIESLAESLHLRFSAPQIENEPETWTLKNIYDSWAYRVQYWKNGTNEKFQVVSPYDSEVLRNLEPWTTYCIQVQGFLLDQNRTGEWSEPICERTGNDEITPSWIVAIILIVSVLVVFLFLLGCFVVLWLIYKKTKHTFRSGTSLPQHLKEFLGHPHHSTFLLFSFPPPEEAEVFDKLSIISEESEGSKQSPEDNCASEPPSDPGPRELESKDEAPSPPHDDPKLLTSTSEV


Molecular target: T1, mouse IL-10 receptor (IL-10R) on T cells and B cells of C57BL/6 mouse splenocytes (mouse)
Test: cell-based or functional assay

STAT3 phosphorylation (pY705), flow cytometry, B cells of C57BL/6 mouse splenocytes (CD19 + B cells), EC50 | STAT3 phosphorylation (pY705), flow cytometry, CD3+ T cells of C57BL/6 mouse splenocytes, EC50 | Binder
55.3 pM | 91.4 pM | mouse IL-10 (ligand, UniProt P18893 19-178, looked up) SRGQYSREDNNCTHFPVGQSHMLLELRTAFSQVKTFFQTKDQLDNILLTDSLMQDFKGYLGCQALSEMIQFYLVEVMPQAEKHGPEIKEHLNSLGEKLKTLRMRLRRCHRFLPCENKSKAVEQVKSDFNKLQDQGVYKAMNEFDIFINCIEAYMMIKMKS
120 pM | 390 pM | 5KPEG-mIL-10 (ligand, mouse, UniProt P18893 19-178, looked up, conjugated to 5 kD PEG; site of attachment not stated) SRGQYSREDNNCTHFPVGQSHMLLELRTAFSQVKTFFQTKDQLDNILLTDSLMQDFKGYLGCQALSEMIQFYLVEVMPQAEKHGPEIKEHLNSLGEKLKTLRMRLRRCHRFLPCENKSKAVEQVKSDFNKLQDQGVYKAMNEFDIFINCIEAYMMIKMKS
